Literature values as cited in paper PMC8880779 (International Journal of Molecular Sciences, 2022).

Experiments:
[1] = test system: mouse model of AD; parameters: method as in PMID 29164613
[2] = test system: cell-based AD model; parameters: method as in PMID 23519124

B1: CaM-like skin protein: present at concentrations ranging between 3 and 6 nM in the human cerebrospinal fluid (protein, UniProt Q9NZT1 2-146, looked up)
Calmodulin-like protein 5: AGELTPEEEAQYKKAFSAVDTDGNGTINAQELGAALKATGKNLSEAQLRKLISEVDSDGDGEISFQEFLTAAKKARAGLEDLQVAFRAFDQDGDGHITVDELRRAMAGLGQPLPQEELDAMIREADVDQDGRVNYEEFARMLAQE
For B1, the “protection against spatial learning impairment” value [1] is listed as “affords efficient protection against spatial learning impairment” and the “inhibition of neuronal death” value [2] is listed as “inhibits neuronal death in a cell-based AD model”.
